The target in assay [1] is Fc-DC-SIGN (entire ectodomain of DC-SIGN fused in-frame with the Fc region of IgG1) (UniProt Q9NNX6). The assay can be described thus: ELISA. (In an ELISA, binding on a coated surface is turned into a signal by an enzyme label.)
Assay [2] addresses Fc-gp120 WT (human IgG1 Fc fused N-terminal to full-length wild-type gp120 of HIV-1 JR-CSF) (HIV-1 JR-CSF). As to the kind of experiment: flow cytometry on cells. Background: A flow cytometer gives signals particle by particle.
Assay [3] concerns the target Fc-gp120 ΔV1V2 (HIV-1 JR-CSF). As to the kind of experiment: flow cytometry on cells.
Assay [4] deals with Fc-gp120 ΔV1V2V3 (HIV-1 JR-CSF). The assay can be described thus: flow cytometry on cells.
The target of assay [5] is Fc-gp120 ΔV3 (HIV-1 JR-CSF). The assay can be described thus: flow cytometry on cells.

Chain of UniProt Q9NNX6 (Q9NNX6 59-404): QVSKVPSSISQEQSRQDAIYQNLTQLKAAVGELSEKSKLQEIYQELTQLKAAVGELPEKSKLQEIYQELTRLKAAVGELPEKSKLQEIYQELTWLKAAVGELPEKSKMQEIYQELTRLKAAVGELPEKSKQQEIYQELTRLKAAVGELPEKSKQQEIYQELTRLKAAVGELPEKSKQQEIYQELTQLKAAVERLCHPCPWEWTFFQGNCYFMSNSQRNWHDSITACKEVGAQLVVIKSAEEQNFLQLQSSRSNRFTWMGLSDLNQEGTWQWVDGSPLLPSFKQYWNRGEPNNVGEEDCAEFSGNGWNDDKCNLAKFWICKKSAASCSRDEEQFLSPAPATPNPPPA

Usually IC50 stands for the concentration at which inhibition is half-maximal. Read a low IC50 as inhibition by little substance. Turning to biotinylated Fc-gp120 (Fc fusion), the IC50 in assay [1] is 0.017 nM.
“4-domain recombinant soluble CD4 (domain or fragment)”: the % inhibition of Fc-gp120 binding to CEM cells at 10 μg/ml sCD4 in assay [2] was 100%; in assay [3] it was 100%; in assay [4], 50%; in assay [5], 100%.

The record behind these values is paper PMC1543650.
